Measured values: US20250382588A1, “CHIMERIC AAV AND USES THEREOF” (priority 2023, published 2025)

How the values were obtained:
[1] = system: striatal D1 MSNs (striatonigral projection neurons); assay: Retrograde labeling of striatonigral projection neurons after AAV injection into the SNr; assay type: in vivo, mice; conditions: for Mean: Table 2, AAVs with capsid and promoter, labeled cells per striatal hemisphere after nigral delivery; for retrograde labeling/infectivity of striatal projection neurons (D1 MSNs), in words: injection into the SNr; for labeled striatonigral projection neurons (FIG. 2C): mean±SEM, n=3 mice, viruses injected into the SNr; for times more EYFP positive/labeled MSNs compared to rAAV2-retro: nigral delivery, hSyn-EYFP
Method: To improve efficiency, multiple rounds of mutations of AAV capsids were performed on a series of different serotypes. Mutations were introduced at three sites in the AAV8 capsid protein to make AAV8R, including N385D, insertion of […] (SEQ ID NO: 31) at position 588, and TS711-712IN. Two additional mutations of V183E and N411S were incorporated into the AAV8R12 capsid protein (FIG. 1A). The labeling pattern of the AAV8R12 capsid and G88 promoter combination was determined.
First, the polypeptide fragment RGNLADODYTKTARQAATAD (SEQ ID NO.: 31) was inserted at the N587-R588 position; two other point mutations of the AAV2 Cap protein were made to develop rAAV2-retro. Similar mutations were then placed at equivalent positions for four other AAV serotypes (FIGS. 1A-IC and 25, TABLE 1), AAV1/5/6/8 (FIG. 1A). […] When administered into the SNr, 4.86±0.22 times EYFP positive MSNs in mice infected by AAV8R-hSyn-EYFP were observed as compared to those infected by rAAV2-retro-hSyn-EYFP (FIG. 2A-2C).
Baseline infectivity of rAAV2-retro was approximately 0.2±0.03×10^4 cells per striatal hemisphere (using a hSyn promoter) (TABLE 2). […] Compared to the current standard retrograde AAV, rAAV2-retro, AAV8R12 labeled 7.72±0.78-times more MSNs after nigral delivery (FIG. 2B-2C, TABLE 1). […] The AAV8R12 was generated using the AAV8R plasmid as a template.
Mice were anesthetized with sodium pentobarbital (Nembutal; 80 mg/kg, i.p.), and then placed into a stereotaxic device (KOPF). Eye cream was applied on both corneas to avoid dehydration. The skull above the targeted areas was thinned with a dental drill and carefully removed. Injections were conducted with a 10 μL syringe connected to a 33-Gauge needle (Neuros; Hamilton), using a microsyringe pump (Legato 130, KD Scientific). A total volume of 200 nL virus was injected into the SNr at a speed of 20 nL/min. The coordinates for the SNr were 3.4 mm posterior, 1.3 mm lateral, 4.8 mm ventral to the bregma.
HEK293T cells (ATCC) were co-transfected by calcium phosphate with an AAV vector plasmid, an AAV Rep-Cap plasmid (rAAV2-retro, AAV1R, AAV5R, AAV6R, AAV8R, and AAV8R1-14), and the pAdDeltaF6 helper plasmid (Addgene, 112867) harboring the adenoviral genes required for the AAV life cycle. HEK293T cells grown in 15 cm cell culture dishes were co-transfected with the mixture of three plasmids (1:1:1) at 80% confluency. 48-72 hours post-transfection, cells were collected and resuspended in a buffer containing 150 mM NaCl and 100 mM Tris-HCl (pH 8.0). Cells were lysed by repeated freeze-thaw cycles in liquid nitrogen and a 37° C. water bath. AAV particles were purified and concentrated using Millipore Amicon 100K columns (Merck Millipore, UFC910008). Encapsidated viral DNA was quantitated by qPCR (Thermo Fisher) with primers recognizing the viral WPRE and/or ITR sequences following denaturation of the AAV particles using Proteinase K. Titers were calculated as genome copies per milliliter.
Images were acquired using a confocal microscope (Carl Zeiss, LSM880) and an Axiolmager.Z1 microscope with apotome (Carl Zeiss). Brain structures were identified microscopically and in digital photos using a mouse brain atlas. To analyze the number of EYFP+ cells in the striatum, slices from rostral to caudal striatum were used. Every sixth section was analyzed, and numbers of EYFP+ cells were multiplied by six to acquire the approximate total number and mean number of cells per animal. Images were processed using ImageJ (NIH, USA), and final quantifications were independently performed manually by two blinded experimenters.

[2] = system: MSNs in nucleus accumbens; assay: Retrograde labeling of accumbal MSNs after delivery into ventral pallidum or lateral hypothalamus; assay type: in vivo, mice

Molecule	Mean [1]	retrograde labeling/infectivity of striatal projection neurons (D1 MSNs), in words [1]	labeled striatonigral projection neurons (FIG. 2C) [1]	times more EYFP positive/labeled MSNs compared to rAAV2-retro [1] [times]	labeling of MSNs in nucleus accumbens [2]	Labeling Efficiency in Striatonigral Pathway ([1]; AAV8R capsid mutants, numbers of labeled neurons per animal)
AAV8R: AAV8 capsid with N385D, insertion of SEQ ID NO: 31 at position 588 and TS to IN mutation; SEQ ID NO: 1 (protein) MAADGYLPDWLEDNLSEGIREWWALKPGAPKPKANQQKQDDGRGLVLPGYKYLGPFNGLDKGEPVNAADAAALEHDKAYDQQLQAGDNPYLRYNHADAEFQERLQEDTSFGGNLGRAVFQAKKRVLEPLGLVEEGAKTAPGKKRPVEPSPQRSPDSSTGIGKKGQQPARKRLNFGQTGDSESVPDPQPLGEPPAAPSGVGPNTMAAGGGAPMADNNEGADGVGSSSGNWHCDSTWLGDRVITTSTRTWALPTYNNHLYKQISNGTSGGATNDNTYFGYSTPWGYFDFNRFHCHFSPRDWQRLINNNWGFRPKRLSFKLFNIQVKEVTQNEGTKTIANNLTSTIQVFTDSEYQLPYVLGSAHQGCLPPFPADVFMIPQYGYLTLNDGSQAVGRSSFYCLEYFPSQMLRTGNNFQFTYTFEDVPFHSSYAHSQSLDRLMNPLIDQYLYYLSRTQTTGGTANTQTLGFSQGGPNTMANQAKNWLPGPCYRQQRVSTTTGQNNNSNFAWTAGTKYHLNGRNSLANPGIAMATHKDDEERFFPSNGILIFGKQNAARDNADYSDVMLTSEEEIKTTNPVATEEYGIVADNLQRGNLADQDYTKTARQAATADVNSQGALPGMVWQNRDVYLQGPIWAKIPHTDGNFHPSPLMGGFGLKHPPPQILIKNTPVPADPPTTFNQSKLNSFITQYSTGQVSVEIEWELQKENSKRWNPEIQYTSNYYKSINVDFAVNTEGVYSEPRPIGTRYLTRNL	10092	acquired improved retrograde infectivity	10092±463.9	4.86±0.22	robust labeling	–
AAV8R12: AAV8R capsid mutant V183E + N411S, SEQ ID NO: 13 (protein) MAADGYLPDWLEDNLSEGIREWWALKPGAPKPKANQQKQDDGRGLVLPGYKYLGPFNGLDKGEPVNAADAAALEHDKAYDQQLQAGDNPYLRYNHADAEFQERLQEDTSFGGNLGRAVFQAKKRVLEPLGLVEEGAKTAPGKKRPVEPSPQRSPDSSTGIGKKGQQPARKRLNFGQTGDSESEPDPQPLGEPPAAPSGVGPNTMAAGGGAPMADNNEGADGVGSSSGNWHCDSTWLGDRVITTSTRTWALPTYNNHLYKQISNGTSGGATNDNTYFGYSTPWGYFDFNRFHCHFSPRDWQRLINNNWGFRPKRLSFKLFNIQVKEVTQNEGTKTIANNLTSTIQVFTDSEYQLPYVLGSAHQGCLPPFPADVFMIPQYGYLTLNDGSQAVGRSSFYCLEYFPSQMLRTGNSFQFTYTFEDVPFHSSYAHSQSLDRLMNPLIDQYLYYLSRTQTTGGTANTQTLGFSQGGPNTMANQAKNWLPGPCYRQQRVSTTTGQNNNSNFAWTAGTKYHLNGRNSLANPGIAMATHKDDEERFFPSNGILIFGKQNAARDNADYSDVMLTSEEEIKTTNPVATEEYGIVADNLQRGNLADQDYTKTARQAATADVNSQGALPGMVWQNRDVYLQGPIWAKIPHTDGNFHPSPLMGGFGLKHPPPQILIKNTPVPADPPTTFNQSKLNSFITQYSTGQVSVEIEWELQKENSKRWNPEIQYTSNYYKSINVDFAVNTEGVYSEPRPIGTRYLTRN	16026	mostly improved efficiency	16026±1654	7.72±0.78	robust labeling	+++ (10 k-25 k)
